The values below come from the supplement of paper PMC9112550, “Optimization of the antimicrobial peptide Bac7 by deep mutational scanning” (BMC Biology, 2022).

The series relates to Escherichia coli TOP10. The experiment in a line: shrunken log2 fold change of peptide-encoding DNA abundance (4.5 h post-induction vs induction); higher = less antimicrobial activity (less host growth inhibition). Conditions: time post-induction: 4.5 h; library: site-saturation at positions 5, 18, 19, 20.
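Also: peptides expressed intracellularly from a pBAD plasmid library in pooled LB shake-flask culture, induced with 0.3% L-arabinose, DNA abundance read by NGS, three biological replicates, DESeq2 with apeglm shrinkage.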

RRIRPRPPRLPRPRPRPWYCPRP: the “shrunken log2 fold change” value was -0.111.
The same measure for RRIRERPPRLPRPRPRPIKQPRP: -0.00681; for RRIRQRPPRLPRPRPRPVRQPRP: 0.0135; for RRIRARPPRLPRPRPRPQNPPRP: 0.0626.
The same measure for RRIRCRPPRLPRPRPRPIREPRP: -0.0298; for RRIRKRPPRLPRPRPRPNLWPRP: 0.492; for RRIRMRPPRLPRPRPRPCCIPRP: -0.351.
The same measure for RRIRFRPPRLPRPRPRPPRMPRP: 0.332; for RRIRHRPPRLPRPRPRPPEYPRP: 0.0328.
Take RRIRRRPPRLPRPRPRPILFPRP: the “shrunken log2 fold change” value was -0.026.
To RRIRFRPPRLPRPRPRPYNTPRP belongs -1.1; to RRIRMRPPRLPRPRPRPEGSPRP, 3.63; to RRIRERPPRLPRPRPRPWFHPRP, -0.421.
Regarding RRIRGRPPRLPRPRPRPWGWPRP, the “shrunken log2 fold change” value came to 1.15.
RRIRHRPPRLPRPRPRPSQVPRP: the “shrunken log2 fold change” value was found to be 0.176.
The same measure for RRIRQRPPRLPRPRPRPHADPRP: -0.43; for RRIRPRPPRLPRPRPRPGHTPRP: 0.179; for RRIRKRPPRLPRPRPRPSPFPRP: 0.0443.
Turning to RRIRKRPPRLPRPRPRPWSHPRP, the “shrunken log2 fold change” value is 0.0601.
In the case of RRIRGRPPRLPRPRPRPQWVPRP, the “shrunken log2 fold change” value was found to be 0.218.
With RRIRWRPPRLPRPRPRPTEHPRP, the “shrunken log2 fold change” value was -0.093.
To RRIRLRPPRLPRPRPRPKRVPRP belongs -0.116; to RRIRNRPPRLPRPRPRPNPTPRP, -0.124; to RRIRVRPPRLPRPRPRPYAMPRP, -0.11.
For the sequence RRIRVRPPRLPRPRPRPIETPRP, the “shrunken log2 fold change” value is 0.0184.
The same measure for RRIRRRPPRLPRPRPRPRHPPRP: 0.524; for RRIRTRPPRLPRPRPRPRLKPRP: 0.0991; for RRIRYRPPRLPRPRPRPDCFPRP: -0.0906.
The same measure for RRIRLRPPRLPRPRPRPMYAPRP: -0.248.
The same measure for RRIRIRPPRLPRPRPRPWCKPRP: -0.284; for RRIRSRPPRLPRPRPRPMNSPRP: -0.776.
Consider RRIRLRPPRLPRPRPRPYAEPRP, for which the “shrunken log2 fold change” value was -0.101.
RRIRKRPPRLPRPRPRPWAQPRP: the “shrunken log2 fold change” value is 0.315.
Regarding RRIRERPPRLPRPRPRPMYDPRP, the “shrunken log2 fold change” value was -0.266.
Consider RRIRVRPPRLPRPRPRPPTHPRP, for which the “shrunken log2 fold change” value was found to be 0.117.
The same measure for RRIRARPPRLPRPRPRPCHMPRP: -0.0816; for RRIRQRPPRLPRPRPRPKPTPRP: -0.0515.
Take RRIRWRPPRLPRPRPRPHDCPRP: the “shrunken log2 fold change” value is -0.00141.
To RRIRARPPRLPRPRPRPAHKPRP belongs 0.664; to RRIRKRPPRLPRPRPRPRLPPRP, 0.768.
Regarding RRIRQRPPRLPRPRPRPRMCPRP, the “shrunken log2 fold change” value came to 0.0318.
For the sequence RRIRCRPPRLPRPRPRPPQWPRP, the “shrunken log2 fold change” value was 0.446.
On to RRIRWRPPRLPRPRPRPDDKPRP, for which the “shrunken log2 fold change” value was -0.139.
For the sequence RRIRHRPPRLPRPRPRPPARPRP, the “shrunken log2 fold change” value was 1.66.
RRIRWRPPRLPRPRPRPTRTPRP: the “shrunken log2 fold change” value was 0.83.
To RRIRGRPPRLPRPRPRPWMTPRP belongs 0.034; to RRIRARPPRLPRPRPRPCHFPRP, -0.0257; to RRIRLRPPRLPRPRPRPIQDPRP, -0.105.
As to RRIRGRPPRLPRPRPRPWHLPRP, the “shrunken log2 fold change” value is -0.188.
On to RRIRCRPPRLPRPRPRPQNDPRP, for which the “shrunken log2 fold change” value is -0.505.
As for RRIRSRPPRLPRPRPRPHKTPRP, the “shrunken log2 fold change” value was -0.258.
To RRIRYRPPRLPRPRPRPQQAPRP belongs -0.0122; to RRIRHRPPRLPRPRPRPWVAPRP, -0.0296.
As for RRIRTRPPRLPRPRPRPRFEPRP, the “shrunken log2 fold change” value came to 0.0138.
For the sequence RRIRMRPPRLPRPRPRPRDGPRP, the “shrunken log2 fold change” value worked out at 2.69.
To RRIRNRPPRLPRPRPRPKYAPRP belongs -0.292.
Regarding RRIRMRPPRLPRPRPRPIGSPRP, the “shrunken log2 fold change” value is 0.079.
To RRIRQRPPRLPRPRPRPAQCPRP belongs -0.017.
Consider RRIRQRPPRLPRPRPRPKSTPRP, for which the “shrunken log2 fold change” value is -0.228.
The same measure for RRIRDRPPRLPRPRPRPKNQPRP: -0.076.
The same measure for RRIRCRPPRLPRPRPRPPDYPRP: 0.0368.
Consider RRIRYRPPRLPRPRPRPREPPRP, for which the “shrunken log2 fold change” value was found to be 0.419.
As to RRIRNRPPRLPRPRPRPYNRPRP, the “shrunken log2 fold change” value turned out to be 0.00748.
As to RRIRFRPPRLPRPRPRPQNFPRP, the “shrunken log2 fold change” value was determined as 0.0645.
The same measure for RRIRLRPPRLPRPRPRPDNSPRP: -0.0436; for RRIRIRPPRLPRPRPRPMNWPRP: -0.135; for RRIRMRPPRLPRPRPRPSPIPRP: -0.106.
The same measure for RRIRQRPPRLPRPRPRPQHIPRP: -0.357; for RRIRPRPPRLPRPRPRPPLEPRP: 0.179.
To RRIRDRPPRLPRPRPRPHYVPRP belongs -0.0495.
Regarding RRIRTRPPRLPRPRPRPGQIPRP, the “shrunken log2 fold change” value is 0.0034.
The same measure for RRIRGRPPRLPRPRPRPRQIPRP: 0.684; for RRIRGRPPRLPRPRPRPIKMPRP: 0.441.
The same measure for RRIRSRPPRLPRPRPRPRFEPRP: 0.402.
The same measure for RRIRDRPPRLPRPRPRPAGFPRP: 0.0112; for RRIRFRPPRLPRPRPRPTHCPRP: -0.0892; for RRIRSRPPRLPRPRPRPRDFPRP: 0.528.
Turning to RRIRSRPPRLPRPRPRPWSVPRP, the “shrunken log2 fold change” value is -0.305.
As for RRIRIRPPRLPRPRPRPFSCPRP, the “shrunken log2 fold change” value was -0.534.
To RRIRWRPPRLPRPRPRPRGHPRP belongs 0.404; to RRIRVRPPRLPRPRPRPPRYPRP, 0.317; to RRIRWRPPRLPRPRPRPIEIPRP, -0.101.
To RRIRLRPPRLPRPRPRPNTWPRP belongs -0.245; to RRIRFRPPRLPRPRPRPECSPRP, 0.411.
For the sequence RRIRRRPPRLPRPRPRPDHAPRP, the “shrunken log2 fold change” value stood at 0.0467.
For the sequence RRIRWRPPRLPRPRPRPDGLPRP, the “shrunken log2 fold change” value was 0.393.
To RRIRFRPPRLPRPRPRPRWWPRP belongs 0.34.
The same measure for RRIRDRPPRLPRPRPRPKNEPRP: -0.00834; for RRIRHRPPRLPRPRPRPLVEPRP: -0.0289; for RRIRIRPPRLPRPRPRPHEGPRP: -0.0113.
For the sequence RRIRDRPPRLPRPRPRPSEWPRP, the “shrunken log2 fold change” value is -0.0637.
To RRIRKRPPRLPRPRPRPPDEPRP belongs 1.89; to RRIRCRPPRLPRPRPRPMKPPRP, 0.0236; to RRIRQRPPRLPRPRPRPPDCPRP, -0.0194.
In the case of RRIRCRPPRLPRPRPRPICVPRP, the “shrunken log2 fold change” value was 0.0832.
RRIRGRPPRLPRPRPRPQAMPRP: the “shrunken log2 fold change” value is -0.0164.
To RRIRCRPPRLPRPRPRPIPCPRP belongs -0.489.
To RRIRARPPRLPRPRPRPNMYPRP belongs -0.38; to RRIRSRPPRLPRPRPRPWMVPRP, -0.267.
To RRIRWRPPRLPRPRPRPIHPPRP belongs -0.117; to RRIRQRPPRLPRPRPRPPKMPRP, -0.0821; to RRIRVRPPRLPRPRPRPWKCPRP, -0.173.
With RRIRTRPPRLPRPRPRPFYDPRP, the “shrunken log2 fold change” value is -0.382.
To RRIRVRPPRLPRPRPRPVQCPRP belongs -0.0156; to RRIRKRPPRLPRPRPRPFEDPRP, -0.136.
For the sequence RRIRTRPPRLPRPRPRPTLMPRP, the “shrunken log2 fold change” value is -0.142.
The same measure for RRIRPRPPRLPRPRPRPNEPPRP: 0.146; for RRIRYRPPRLPRPRPRPIPWPRP: -0.545; for RRIRARPPRLPRPRPRPKIIPRP: -0.287.
The same measure for RRIRCRPPRLPRPRPRPMSWPRP: -0.159.
The same measure for RRIRARPPRLPRPRPRPTNPPRP: 0.288; for RRIRARPPRLPRPRPRPLKQPRP: 0.469; for RRIRFRPPRLPRPRPRPVVLPRP: 0.0119.
As for RRIRQRPPRLPRPRPRPDTIPRP, the “shrunken log2 fold change” value is 0.0406.
The same measure for RRIRMRPPRLPRPRPRPGGKPRP: 0.583; for RRIRIRPPRLPRPRPRPFSQPRP: -0.52.
As to RRIRERPPRLPRPRPRPRADPRP, the “shrunken log2 fold change” value is 0.0209.
To RRIRERPPRLPRPRPRPDHGPRP belongs -0.00973; to RRIRMRPPRLPRPRPRPTLYPRP, 0.16.
The same measure for RRIRCRPPRLPRPRPRPVRSPRP: 0.549; for RRIRWRPPRLPRPRPRPKAYPRP: -0.12; for RRIRARPPRLPRPRPRPFDGPRP: -0.22.
The same measure for RRIRKRPPRLPRPRPRPSSMPRP: -0.0241; for RRIRQRPPRLPRPRPRPDSGPRP: -0.0171; for RRIRWRPPRLPRPRPRPRETPRP: 0.936.
